Reference: US20230151106A1, “OFATUMUMAB FOR TREATING MS WHILE MAINTAINING SERUM IgG” (NOVARTIS AG, priority 2020, published 2023)
Entries after “also recorded” stand apart in the source; their conditions may differ. Like-named read-outs stand apart in the source and are kept apart here.

What was measured:
serum IgG [1] = experiment: Serum IgG levels in ASCLEPIOS I/II (Pool C2)
Procedure: (§3) In the present application serum Ig levels can preferably be determined by immunoturbidimetry. Preferably a Roche cobas® Analyzer was used, especially module c of the cobas® analyser. In a preferred embodiment Ig levels can be determined by using a cobas® c 311 analyzer. It is further preferred that IgG measurements are carried out as described in the cobas® leaflet “IGG-2 Tina-quant IgG Gen. 2”, preferably version 11.0 dated 2016-02 and IgM measurements as described in the leaflet “IGM-2 Tina-quant IgM Gen. 2”, preferably version 13.0 dated 2018-11.
(§4) Serum samples were preferably kept at 2-8° C. before measurement.
(§5) Patients were randomised (1:1) to receive either ofatumumab 20 mg sc injections every 4 weeks (after an initial loading regimen of 20 mg sc doses on Days 1, 7 and 14) or teriflunomide 14 mg orally once daily, for up to 30 months.
(§6) Serum IgG/IgM levels were monitored at baseline, Week (W) 4, W12 and every 12 weeks, see FIG. 1.

[2] = test system: multiple sclerosis patients; settings: in vivo
Text: as §6

IgG = experiment: Long term study (Example 5), IgG levels; assay type: in vivo, human; settings: OMB long-term group, FIG. 14
Text: (§1) 2”, preferably version 13.0 dated 2018-11.
(§2) Patients were subjected to a long term treatment.

serum IgG [3] = settings: in vivo
Procedure: as §3, §4, §5, §6

B cells = experiment: B-cell repletion after study treatment discontinuation (Pool C2, OMS115102); assay type: in vivo, human; settings: study OMS115102, approximately 48 weeks post study
IgM = experiment: Long term study (Example 5), IgM levels; assay type: in vivo, human; settings: OMB long-term group, FIGS. 16 and 17
Text: as §1, §2

COVID-19 = settings: for COVID-19 symptoms duration / Outcome: serious case
Procedure: Confirmed or suspected cases of COVID-19 infection in patients receiving ofatumumab in the open-label extension study ALITHIOS were reviewed (data cutoff: Dec. 21, 2020)
COVID-19 cases were classified as confirmed if SARS-CoV2 positive test results were available, or patient was reported to be diagnosed with COVID-19
Suspected cases of COVID-19 were classified as suspected if without a positive SARS-CoV2 test or definitive diagnosis
The following COVID-19 case characteristics were assessed:
*Serious criteria is based on the regulatory reporting definition established by ICH, for the purposes of regulatory reporting obligations, and consists of fatal, life-threatening, hospitalization and medically significant

MS patients [4] = settings: human, in vivo
CD19+ B-cells = experiment: CD19+ B-cell depletion in ASCLEPIOS; assay type: in vivo, human
Procedure: ASCLEPIOS I and II are double-blind, double-dummy, active comparator-controlled, parallel-group, innovative, adaptive design, multicentre trials. Patients were randomised (1:1) to receive either ofatumumab 20 mg sc injections every 4 weeks (after an initial loading regimen of 20 mg sc doses on Days 1, 7 and 14) or teriflunomide 14 mg orally once daily, for up to 30 months. […] Patients aged 18-55 years with an Expanded Disability Status Scale (EDSS) score (according to Kurtzke, Neurology. 1983, Nov; 33(11): 1444-52) of 0-5.5 at screening who experienced ≥1 relapse in the past year or ≥2 relapses in the past 2 years or a positive gadolinium-enhancing (Gd+) MRI scan during the year before randomisation were included.

MS patients [5] = experiment: General safety in MS clinical trials with ofatumumab (neutrophils, PML, hepatitis B, malignancy, cytopenia); settings: human, in vivo
[6] = in vivo, sc, 20 mg
serum IgM = experiment: Serum IgM levels in ASCLEPIOS I/II (Pool C2); assay type: in vivo, human
Procedure: In the present application serum Ig levels can preferably be determined by immunoturbidimetry. Preferably a Roche cobas® Analyzer was used, especially module c of the cobas® analyser.
as §4
ASCLEPIOS I and II are double-blind, double-dummy, active comparator-controlled, parallel-group, innovative, adaptive design, multicentre trials. Patients were randomised (1:1) to receive either ofatumumab 20 mg sc injections every 4 weeks (after an initial loading regimen of 20 mg sc doses on Days 1, 7 and 14) or teriflunomide 14 mg orally once daily, for up to 30 months.

CD20 receptor = molecular target: T1, CD20 receptor (Homo sapiens, UniProt P11836); experiment: B-cell binding studies, off-rate; settings: in comparison to rituximab
T1 construct: endogenous in cells
T1 sequence (P11836 1-297): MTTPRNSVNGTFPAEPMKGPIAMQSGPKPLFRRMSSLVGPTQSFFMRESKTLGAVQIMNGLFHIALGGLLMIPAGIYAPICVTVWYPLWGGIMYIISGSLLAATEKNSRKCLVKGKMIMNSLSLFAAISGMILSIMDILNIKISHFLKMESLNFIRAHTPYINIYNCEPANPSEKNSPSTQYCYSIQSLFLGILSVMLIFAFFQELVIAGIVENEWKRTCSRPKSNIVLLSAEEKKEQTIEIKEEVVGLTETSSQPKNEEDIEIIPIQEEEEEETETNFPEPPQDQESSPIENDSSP

[7] = test system: multiple sclerosis patients; experiment: Infections in relation to IgM/IgG levels <LLN vs >=LLN in ofatumumab MS studies
Text: as §6

MS patients [8] = settings: cited from earlier work
CD20 receptor on B-cells = experiment: Nonclinical ADCC activity comparison; assay type: cell-based; settings: ofatumumab compared to ocrelizumab and rituximab
IgG levels = experiment: Metanalysis of Example 1 versus Derfuss et al. (pooled OPERA), IgG levels; assay type: in vivo, human
Text: In a metanalysis, the results of Example 1 and the results obtained by Derfuss et al. were compared.

ofatumumab: recombinant human monoclonal immunoglobulin G1 (IgG1) antibody that binds to human CD20
recovery of IgG levels after reduction until Week 36 (serum IgG [1]; ASCLEPIOS I and II, FIG. 7): recovered up to baseline levels by W72 | change in mean serum IgG value from baseline (serum IgG [1]; Week 96): +0.249 g/L | patients with IgG levels 20% below the LLN (serum IgG [1]; Week 96 (Week-96 completers)): no ofatumumab patients | increase in mean serum IgG value from baseline (serum IgG [1]; Week 96, ASCLEPIOS studies): 2.2% | proportion of patients with IgG levels below the LLN versus teriflunomide (serum IgG [1]; any time post-baseline, FIG. 8): lower proportion | patients with IgG levels on or above the LLN (serum IgG [1]; any time post-baseline, FIG. 9): > 85% | proportion of patients with IgG below LLN (serum IgG [1]; anytime during post baseline visit): 14.2% | turning point at which the trend of decreasing IgG levels reverses (serum IgG [1]; in vivo): 36 week | mean serum IgG over time compared to baseline (serum IgG [1]; over 96 weeks treatment): no decrease in mean values; also recorded: No decrease in mean serum IgG | decrease of IgG levels (serum IgG [1]; week 72 and thereafter): no decrease | Infections observed after the first drop of IgG<LLN [2]: 45.5% | Infections observed after the first drop of IgG<LLN, number of patients [2]: 61 | Number of patients with at least 1 infection AE by Grade: Grade 4 [2]: 0 n | infection AE by outcome: Recovered/resolved [2]: 0 n | infection AE by outcome: Recovered/resolved with sequelae [2]: 0 n | infection AE by outcome: Recovering/resolving [2]: 0 n | patients who received immunoglobulin substitution therapy for decrease in IgG/M [2]: none of the patients | patients who reported an infection post study drug discontinuation [2]: six of 32 | serious opportunistic infections [2]: no cases | IgG levels over long-term follow-up (IgG): stable over the long-term follow-up of >4 years | patients with IgG below LLN, n/N (serum IgG [3]): 134/944 | B-cell repletion (B cells): B cells for all subjects were repleted, with the exception of one subject | IgM levels with longer duration (IgM): levels remained above the lower limit of normal | COVID-19 outcome: Ongoing (COVID-19; Non-serious (n = 29)): 0 | COVID-19 outcome: Recovered (COVID-19; Non-serious (n = 29)): 29 | COVID-19 outcome: Recovering (COVID-19; Non-serious (n = 29)): 0 | COVID-19 outcome: Recovered (COVID-19; Serious (n = 6)): 5 | cases with no change in ofatumumab treatment required (COVID-19; confirmed COVID-19 infection): 21 cases | cases with treatment temporarily interrupted due to confirmed COVID-19 infection (COVID-19; human, in vivo): 5 cases | cases with complete recovery (COVID-19; of 35 confirmed cases): 34 cases | confirmed COVID-19 cases, Non-serious (COVID-19; of 35 confirmed cases): Non-serious (n = 29) | COVID-19 symptoms duration (COVID-19; Patient ID 5409018): ~50 days | Outcome (COVID-19; Patient ID 5409018): Complete | COVID-19 symptoms duration (COVID-19; Patient ID 5608014): 18 days | Outcome (COVID-19; Patient ID 5608014): Complete | COVID-19 symptoms duration (COVID-19; Patient ID 5800004): ~30 days | Outcome (COVID-19; Patient ID 5800004): Fatal | COVID-19 symptoms duration (COVID-19; Patient ID 5800043): 11 days | Outcome (COVID-19; Patient ID 5800043): Complete | COVID-19 symptoms duration (COVID-19; Patient ID 5801015): 15 days | Outcome (COVID-19; Patient ID 5801015): Complete | COVID-19 symptoms duration (COVID-19; Patient ID 5806001): 10 days | Outcome (COVID-19; Patient ID 5806001): Complete | cases of PML or Hepatitis B reactivation or serious potential OI (MS patients [4]): no cases | incidence of malignancy (MS patients [4]): no increased incidence | mean and median values of neutrophil count (MS patients [4]): remained within the normal ranges | risk of neutropenia (MS patients [4]): No risk of neutropenia | patients with CD19+ B-cells below LLN (CD19+ B-cells; Week 1): 77.0% | patients with CD19+ B-cells below LLN, n/M (CD19+ B-cells; Week 1): 338/439 | patients with CD19+ B-cells below LLN (CD19+ B-cells; Week 1, listed as OMB): (77.0) % | patients with CD19+ B-cells below LLN (CD19+ B-cells; Week 2): 95.0% | patients with CD19+ B-cells below LLN, n/M (CD19+ B-cells; Week 2): 420/442 | patients with CD19+ B-cells below LLN (CD19+ B-cells; Week 2, listed as OMB): (95.0) % | patients with CD19+ B-cells below LLN (CD19+ B-cells; Week 4): (97.8) % | patients with CD19+ B-cells below LLN, n/M (CD19+ B-cells; Week 4): 440/450 | patients with CD19+ B-cells below LLN (CD19+ B-cells; Week 12): 99.3% | patients with CD19+ B-cells below LLN, n/M (CD19+ B-cells; Week 12): 440/443 | patients with CD19+ B-cells below LLN (CD19+ B-cells; Week 12, listed as OMB): (99.3) % | patients with CD19+ B-cells below LLN (CD19+ B-cells; Week 24): (98.4) % | patients with CD19+ B-cells below LLN, n/M (CD19+ B-cells; Week 24): 422/429 | patients with CD19+ B-cells below LLN (CD19+ B-cells; Week 36): (98.8) % | patients with CD19+ B-cells below LLN, n/M (CD19+ B-cells; Week 36): 415/420 | patients with CD19+ B-cells below LLN (CD19+ B-cells; Week 48): (98.3) % | patients with CD19+ B-cells below LLN, n/M (CD19+ B-cells; Week 48): 397/404 | patients with CD19+ B-cells below LLN (CD19+ B-cells; Week 60): (96.7) % | patients with CD19+ B-cells below LLN, n/M (CD19+ B-cells; Week 60): 385/398 | patients with CD19+ B-cells below LLN (CD19+ B-cells; Week 72): (98.2) % | patients with CD19+ B-cells below LLN, n/M (CD19+ B-cells; Week 72): 379/386 | patients with CD19+ B-cells below LLN (CD19+ B-cells; Week 84): (98.9) % | patients with CD19+ B-cells below LLN, n/M (CD19+ B-cells; Week 84): 260/263 | patients with CD19+ B-cells below LLN (CD19+ B-cells; Week 96): (99.4) % | patients with CD19+ B-cells below LLN, n/M (CD19+ B-cells; Week 96): 161/162 | patients with CD19+ B-cells below LLN (CD19+ B-cells; Week 108): (97.9) % | patients with CD19+ B-cells below LLN, n/M (CD19+ B-cells; Week 108): 93/95 | patients with CD19+ B-cells below LLN (CD19+ B-cells; Week 120): (100) % | patients with CD19+ B-cells below LLN, n/M (CD19+ B-cells; Week 120): 28/28 | median CD19+ B-cell count (CD19+ B-cells; from Week 2 onwards): zero | patients in whom CD19+ B-cell depletion was maintained (CD19+ B-cells; throughout the treatment period): > 96% | cytopenia during therapy (MS patients [5]): No cytopenia | half-life at steady state [6]: approximately 16 days | IgM decline with treatment (serum IgM; MS studies): some level of IgM decline but the majority of the patients remained above LLN | change in mean IgM (serum IgM; Week 96 completers, Pool C2): -0.537 g/L | decline in mean IgM (serum IgM; Week 96 completers, Pool C2): 38.8% | proportion of patients with IgM levels below LLN and 10% below the LLN versus teriflunomide (serum IgM; any time post baseline and at Week 96, FIG. 8): higher proportion | patients with IgM levels on or above the LLN (serum IgM; any time post-baseline, FIG. 9): 82-89% | change in mean IgM value (serum IgM; baseline to Week 48, Pool C2): -0.420 g/L | decrease in mean IgM value (serum IgM; baseline to Week 48, Pool C2): 30.9% | mean serum IgM levels versus reference range (serum IgM; over time, reference range 0.40-2.30 g/L): remained well within the reference ranges | off-rate (dissociation rate of the antibody from the CD20 receptor) (CD20 receptor): lower off-rate | Number of patients with at least 1 infection AE by Grade: Grade 4 ([7]; IgG <LLN, N = 134): 0 n | infection AE by outcome: Fatal ([7]; IgG <LLN, N = 134): 0 n | infection AE by outcome: Fatal ([7]; IgM <LLN, N = 167): 0 n | infection AE by outcome: Fatal ([7]; IgM ≥LLN, N = 777): 0 n | suppression of gadolinium (Gd) T1 lesions when compared to Aubagio (MS patients [8]; ASCLEPIOS I/II): highly significant suppression | annualized relapse rate (ARR) (MS patients [8]; ASCLEPIOS I): 0.11 | reduction in annualized relapse rate (ARR) compared to Aubagio (teriflunomide) (MS patients [8]; ASCLEPIOS I): 50.5% | annualized relapse rate (ARR) (MS patients [8]; ASCLEPIOS II): 0.10 | reduction in annualized relapse rate (ARR) compared to Aubagio (teriflunomide) (MS patients [8]; ASCLEPIOS II): 58.5% | relative risk reduction in 3-month confirmed disability progression (CDP) versus Aubagio (MS patients [8]; pre-specified pooled analyses): 34.4% | relative risk reduction in 6-month CDP versus Aubagio (MS patients [8]; pre-specified pooled analyses): 32.5% | ADCC activity (CD20 receptor on B-cells): No relevant difference | increase of IgG levels (IgG levels; after two years (96 weeks)): about 3% | effect on IgG levels on the long term (IgG levels; in vivo): sustains and even increases IgG levels
